Target: T1, human CD28 (human, UniProt P10747 19-220)
Experiment: cell-based or functional assay

Row | Binder | Luciferase assay (EC50) [nM] | MLR assay (EC50) [nM]
1 | 1h-72 (other) VL: DIQMTQSPSSLSASVGDRVTITCRASRSINHWLDWYQQKPGKAPTLLISGVSWLQSGVPSRFSGSGSGTDFTLTISSLQPEDFATYYCCQPGFRPCTFGQGTKVEIKR | 3400 | 
2 | 1h-73 (other) VL: DIQMTQSPSSLSASVGDRVTITCRASQYIGTQLSWYQQKPGKAPKLLIYRGSLLQSGVPSRFSGSGSGTDFTLTISSLQPEDFATYYCQQTALSPYTFGQGTKVEIKR | 4900 | 
3 | 1h-79-1 (other) VL: DIQMTQSPSSLSASVGDRVTITCRASQPIGHSFGWYQQKPGKAPKLLIYWASTLQSGVPTRFSGSGSGTDFTLTISSLQPEDFATYYCQQMLRTPFTFGQGTKVEIKR | 418000 | 2100
4 | 1h-79-1519 (other) VL: DIQMTQSPSSLSASVGDRVTITCRASQPIGHSLGWYQQKPGKAPKLLIYWASLLLDGVPSRFSGSGSGTDFTLTISSLQPEDFATYYCQQMLRTPFTFGQGTKVEIKR | 97 | 37
5 | 1h-79-1520 (other) VL: DIQMTQSPSSLSASVGDRVAITCRASQPIGHSLGWYEQKPGKAPKLLIYWSSVLISGVPSRFSGSGSGTDFTLTISSLQPEDFATYYCQQMLRTPFTFGQGTKVEIKR | 113 | 68
6 | 1h-79-2 (other) VL: DTQMTQSPSSLSASVGDRVTITCRASRPIGHSLGWYQQKPGKAPKLLIYWASMLQSGVPSRFSGSGSGTDFTLTISSLQPEDFATYYCQQMLRTPFTFGQGTKVEIKR | 166 | 
7 | 1h-79-21 (other) VL: DIQMTQSPSSLSASVGDRVTITCRASQPIGHSFAWYQQKPGKAPKLLIYWASTLQSGVPSRFSGSGSGTDFTLTISSLQPEDFATYYCQQMLRTPFTFGQGTKVEIKR | 3000 | 
8 | 1h-79-30 (other) VL: DIQMTQSPSSLSASVGDRVTITCRASQPIGHSFGWYQQKPGKAPKLLIYWASMLQSGVPSRFSGSGSGTDFTLTISSLQPEDFATYYCQQMLRTPFSFGQGTKVEIKR | 224 | 126
9 | 1h-79-31 (other) VL: DIQMTQSPSSLSASVGDRVTITCRASQPIGHSFGWYQQKPGKAPKLLIYWASMLQSGVPSRFSGSGSGTDFTLTISSLQPEDFATYYCQQMLRTPFMFGQGTKVEIKR | 141 | 103
10 | 1h-79-32 (other) VL: DIQMTQSPSSLSASVGDRVTITCRASQPIGHSFGWYQQKPGKAPKLLIYWASMLQSGVPSRFSGSGSGTDFTLTISSLQPEDFATYYCQQMLRTPFAFGQGTKVEIKR | 68 | 
11 | 1h-79-808 (other) VL: DIQMTQSPSSLSASVGDRVTITCRASQPIGHALGWYQQKPGKAPRLLIYWASTLQSGVPSRFSGSGSGTDFTLTISSLQPEDFATYYCQQMLRTPFMFGQGTKVEIKR | 560 | 
12 | 1h-79-809 (other) VL: DIQMTQSPSSLSASVGDRVTITCRASQAIGHSLGWYQQKPGKAPKLLVYWASTLQSGVPSRFSGSGSGTDFTLTISSLQPEDFATYYCQQMLRTPFMFGQGTKVEIKR | 592 | 

Now from value to binder:

Row | Luciferase assay (EC50) [nM] | MLR assay (EC50) [nM] | Binder
13 | 6600 |  | 1h-70 (other) VL: DIQMTQSPSSLSASVGDRVTITCRASQSIGTGLRWYQQKPGKAPMLLIYRASILQSGVPSRFSGGGSGTDFTLTISSLQPEDFATYYCQQTWYRPYTFGQGTKVEIKR
14 | 3500 |  | 1h-71 (other) VL: DIQMTQSPSSLSASVGDRVTITCRASRDIGHMLNWYQQKPGKAPKLLIWFGSVLQSGVPSRFSGSGSGTDFTLTISSLQPEDFATYYCVQGRLRPPTFGQGTKVEIKR
15 | 1300 |  | 1h-74 (other) VL: DIQMTQSPSSLSASVGDRVTITCRASQYIGGALSWYQQKPGKAPKLLIYRASRLQSGVPSRFSGSGSGTDFTLTISSLQPEDFATYYCQQVALVPYTFGQGTKVEIKR
16 | 5700 |  | 1h-75 (other) VL: DIQMTQSPSSLSASVGDRVTITCRASQYIGTRLSWYQQKPGKAPKLLIYNASFLQSGVPSRFSGSGSGTDFTLTISSLQPEDFATYYCQQLALSPLTFGQGTKVEIKR
17 | 40 | 268 | 1h-79-15 (other) VL: DIQMTQSPSSLSASVGDRVTITCRASQPIGHSLGWYQQKPGKAPKLLIYWASTLQSGVPSRFSGSGSGTDFTITISSLQPEDFATYYCQQMLRTPFTFGQGTKVEIKR
18 | 103 |  | 1h-79-1505 (other) VL: DIQMTQSPSSLSASVGDRVTITCRASQPIGHSLGWYQQKPGKAPKLLIYWGSWLQSGVPSRFSGSGSGTDFTLTISSLQPEDFATYYCQQMLRTPFTFGQGTKVEIKR
19 | 19 | 9 | 1h-79-1512 (other) VL: DIQMTQSPSSLSASVGDRVTITCRASQPIGHSLGWYQQKPGKAPKLLIYWASVLLHGVPSRFSGSGSGTDFTLTISSLQPEDFATYYCQQMLRTPFTFGQGTKVEIKR
20 | 2500 |  | 1h-79-17 (other) VL: DIQMTQSPSSLSASVGDRVTITCRASQPIGHSLAWYQQKPGKAPKLLIYWASTLQSGVPSRFSGSGSGTDFTLTISSLQPEDFATYYCQQMLRTPFAFGQGTKVEIKR
21 | 1800 |  | 1h-79-20 (other) VL: DIQMTQSPSSLSASVGDRVTVTCRASQPIGHSLAWYQQKPGKAPKLLIYWASMLQSGVPSRFSGSGSGTDFTLTISSLQPEDFATYYCQQMLRTPFTFGQGTKVEIKR
22 | 750 |  | 1h-79-22 (other) VL: DIQMTQSPSSLSASVGDRVTITCRASQPIGHSLAWYQQKPGKAPKLLIYWASMLQSGVPSRFSGSGSGTDFTLTISSLQPEDFATYYCQQMLRTPFSFGQGTKVEIKR
23 | 331 | 295 | 1h-79-24 (other) VL: DIQMTQSPSSLSASVGDRVTITCRASQPIGHSLGWYQQKPGKAPKLLIYWASTLQSGVPSRFSGSGSGTDFTLTISSLQPEDFATYYCQQMLRTPFAFGQGTKVEIKR
24 | 62 | 38 | 1h-79-26 (other) VL: DIQMTQSPSSLSASVGDRVTITCRASQPIGHSLGWYQQKPGKAPKLLIYWASMLQSGVPSRFSGSGSGTDFTLTISSLQPEDFATYYCQQMLRTPFSFGQGTKVEIKR
25 | 40 | 109 | 1h-79-28 (other) VL: DIQMTQSPSSLSASVGDRVTITCRASQPIGHSLGWYQQKPGKAPKLLIYWASMLQSGVPSRFSGSGSGTDFTLTISSLQPEDFATYYCQQMLRTPFMFGQGTKVEIKR
26 | 43 | 150 | 1h-79-29 (other) VL: DIQMTQSPSSLSASVGDRVTITCRASQPIGHSLGWYQQKPGKAPKLLIYWASMLQSGVPSRFSGSGSGTDFTLTISSLQPEDFATYYCQQMLRTPFAFGQGTKVEIKR
27 | 240 |  | 1h-79-8 (other) VL: DIQMTQSPSSLSASVGDRVTITCRASQPIGHSLGWYQQKPGKAPKLLIYWASTLQSGVPSRFSGSGSGTDFTLTISSLQPEDFATYYCQQMLRTPFMFGQGTKVEIKR
28 | 421 | 48 | 1h-79-802 (other) VL: DIQMTQSPSSLSASVGDRVTITCRASTPIGHSLGWYQQKPGKAPKLLIYWASTLQSGVPSRFSGSGSGTDFTLTISSLQPEDFATYYCQQMLRTPFMFGQGTKVEIKR
29 | 40 | 26 | 1h-79-806 (other) VL: DIQMTQSPSSLSASVGDRVTITCRASQPIGHSLGWYQQKPGKAPKLLIYWASMLQGGVPSRFSGSGSGTDFTLTISSLQPEDFATYYCQQMLRTPFMFGQGTKVEIKR
30 | 31 | 53 | 1h-79-807 (other) VL: DIQMTQSPSSLSASVGDRVTITCRASQPIGHTLGWYQQKPGKAPKLLIYWASDLIRGVPSRFSGSGSGTDFTLTISSLQPEDFATYYCQQMLRTPFMFGQGTKVEIKR
31 | 366 | 438 | 1h-80-1 (other) VL: DIQMTQSPSSLSASVGDRVTITCRASQRIGSNLAWYQQKPGRAPKLLIYWASLLQSGVPSRFSGSGSGTDFTLIISSLQPEDFATYYCQQTRSAPFAFGQGTKVEIKR

Target: T1, human CD28
Experiment: cell-based or functional assay
Remark: another data set of the same source

Row | Binder | DC-MLR Assay (EC50 nM) [nM] | Luciferase assay (EC50 nM) [nM]
32 | 1h-99-2 40K linear PEG (other, 40K linear PEG; site of attachment not stated) VH: EVQLLESGGGLVQPGGSLRLSCAASGFTFDSANMSWVRQAPGKGLEWVSWIEDTGTQTFYADSVKGRFTISRDNSKNTLYLQMNSLRAEDTAVYYCAKSPFGPLYGFDYRGQGTLVTVSS | 390 | 100
33 | 1h-99-2 40K branched PEG (other, 40K branched PEG; site of attachment not stated) VH: EVQLLESGGGLVQPGGSLRLSCAASGFTFDSANMSWVRQAPGKGLEWVSWIEDTGTQTFYADSVKGRFTISRDNSKNTLYLQMNSLRAEDTAVYYCAKSPFGPLYGFDYRGQGTLVTVSS | 383 | 117

Source: US20130109846A1 (published 2013)
